How the values were obtained:
[1] = biological target: human GPC3 on tumor cell lines (HepG2, Huh-7, NCI-H661, MKN-45, NCI-H23, BxPC-3, NCI-H292) (human, UniProt P51654 25-554); experiment: cell-based or functional assay
[2] = biological target: T1, cyno Glypican-3 delta-GPI-HIS, in-house produced (cynomolgus); experiment: SPR ProteOn XPR36, GPC3 captured on anti-His antibody, 1:1 model
T1 construct: range 3-559; also called cyno GPC3; cyGPC3
Protocol: (§1) Recombinant GPC3 proteins were captured on a GLC Sensor Chip (Biorad) immobilized with THE anti-His antibody (Genscript, cat no ABIN387699) via amine coupling, using EDC and NHS chemistry (running buffer: HBS-EP+, pH7.4). Purified ISVDs were injected for 2 minutes (flow rate 45 μL/min) at different concentrations (between 0.3 nM and 1000 nM) and dissociation was followed for 900 s. Regeneration was performed by injecting 10 mM Glycine-HCl (pH 1.5) for 1 minute (flow rate 45 μL/min). Data was double referenced by subtracting a reference ligand lane and a blank buffer injection. Processed sensorgrams were analyzed based on the 1:1 interaction model (Langmuir binding model) using ProteOn Manager 3.1.0 (Version 3.1.0.6) software.

[3] = biological target: T2, recombinant human Glypican-3 (R&D Systems, cat nr. 2119-GP) (human, UniProt P51654 25-559); experiment: as above
T2 construct: Bought protein; also called human GPC3; hGPC3
Protocol: as §1

[4] = biological target: T3, cyno GPC3 expressed on CHO Flp-In cells (cynomolgus); experiment: flow cytometry on CHO Flp-In cyno GPC3 cells
T3 construct: range 3-559; On cells; also called cyGPC3 CHO; CHO-cGPC3

[5] = biological target: T4, TCRab on primary human T cells (human, UniProt P01848 1-140; P01850 1-176); experiment: competition flow cytometry on primary human T cells, competitor T017000624 at EC30 (2E-08 M)
T4 construct: whole, on cells; T cells isolated from buffy coats; also called Primary hu T cells; human TCR
T4 TCR alpha (looked up): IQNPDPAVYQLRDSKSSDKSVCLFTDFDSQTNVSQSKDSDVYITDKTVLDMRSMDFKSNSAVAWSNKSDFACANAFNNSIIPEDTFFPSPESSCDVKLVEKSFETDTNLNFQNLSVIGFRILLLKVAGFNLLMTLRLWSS
T4 TCR beta (looked up): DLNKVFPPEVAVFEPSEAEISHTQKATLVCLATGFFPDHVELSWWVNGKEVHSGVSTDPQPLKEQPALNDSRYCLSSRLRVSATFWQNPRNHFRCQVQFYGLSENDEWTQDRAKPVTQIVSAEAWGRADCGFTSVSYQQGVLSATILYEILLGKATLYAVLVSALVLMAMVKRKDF
Protocol: T cells (human T cells obtained as described in Example 3 and cyno T cells purchased from LPT laboratory, Germany) were thawed and counted on the day of the assay and diluted to a concentration of 1E+06 cells/mL, before adding 75 μL to the wells of a V-bottom 96-well plate (Greiner, cat no 651180). Cells were washed once with cold FACS buffer, before adding 25 μL Nb and 25 μL competitor to the wells. […] Cells were resuspended and plates were incubated at 4° C. for 90 minutes, after which plates were washed twice in cold FACS buffer. Cells were resuspended in 50 μl 1/1000 diluted Monoclonal ANTI-FLAG® M2 (Sigma Aldrich, cat no F1804) in FACS buffer and incubated at 4° C. for 30 minutes. Plates were washed twice in cold FACS buffer. […] Plates were washed twice in cold FACS buffer. Cells were resuspended in 55 μL 1/1000 diluted Propidium Iodide (Sigma-Aldrich, cat no P4170) in FACS buffer before acquiring data on the MACSQuant X (Miltenyi biotec).

[6] = biological target: T5, human Glypican-6 (R&D systems, cat no 2845-GP) (human, UniProt Q9Y625 24-529, limits assumed); experiment: ELISA, Glypican-6 coated at 2 ug/mL
T5 construct: Bought; also called GPC6
T5 sequence (looked up): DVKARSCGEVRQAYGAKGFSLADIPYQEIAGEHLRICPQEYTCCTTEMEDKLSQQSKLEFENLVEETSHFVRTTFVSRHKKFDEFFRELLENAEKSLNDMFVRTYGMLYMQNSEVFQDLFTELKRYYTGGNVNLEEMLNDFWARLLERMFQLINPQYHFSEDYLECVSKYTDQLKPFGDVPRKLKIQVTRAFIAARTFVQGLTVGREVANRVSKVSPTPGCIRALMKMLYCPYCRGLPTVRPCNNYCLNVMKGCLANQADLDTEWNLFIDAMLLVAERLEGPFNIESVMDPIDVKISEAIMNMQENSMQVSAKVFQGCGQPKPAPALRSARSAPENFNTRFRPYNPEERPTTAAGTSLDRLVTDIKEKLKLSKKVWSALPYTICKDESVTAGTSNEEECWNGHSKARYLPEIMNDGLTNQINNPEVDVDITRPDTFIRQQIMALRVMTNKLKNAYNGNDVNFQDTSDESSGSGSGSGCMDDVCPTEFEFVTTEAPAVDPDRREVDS
Protocol: Human GPC1 (R&D systems, cat no 4519-GP), human GPC2 (R&D systems, cat no 2304-GP), human GPC3 (R&D systems, cat no 2119-GP), human Glypican-5 (R&D systems, cat no 2607-G5) and human Glypican-6 (R&D systems, cat no 2845-GP) were directly coated overnight at 4° C. (2 μg/mL, 1×PBS buffer) on a 384-well HB SpectraPlate (PerkinElmer). The following day the plate was washed 6 times (AquaMax microplate washer, Molecular devices) and blocked with 1×PBS+1% Casein for 2 hours at room temperature. […] After 6 final wash steps the es(HS)TMB substrate (SDT) was added and the reaction stopped by addition of 1 M HCl after 10 minutes. The absorbance of the plate was measured at wavelengths 450 and 620 nm on the Clariostar instrument (BMG LABTECH) and the OD₄₅₀-OD₆₂₀ calculated and plotted for data analysis.

[7] = biological target: T6, human GPC3 expressed on CHO Flp-In cells (human, UniProt P51654 25-554); experiment: flow cytometry on cells expressing GPC3; upper end tied by Table 21 to CHO human GPC3
T6 construct: On cells; Q25-R358, S359-H580; also called hGPC3 CHO; CHO huGPC3

[8] = biological target: T6, human GPC3 expressed on CHO Flp-In cells; experiment: flow cytometry on CHO Flp-In human GPC3 cells

B1: A022600424 (other)
chain: DVQLVESGGGVVQPGGSLRLSCVASGYVHKINFYGWYRQAPGKEREKVAHISIGDQTDYADSAKGRFTISRDESKNTVYLQMNSLRPEDTAAYYCRALSRIWPYDYWGQGTLVTVSSGGGGSEVQLVESGGGVVQPGGSLRLSCAASGFTFSSFAMTWVRRPPGKGLEWVATITNKGVTSYADSVKGRFTISRDNAKNTLYLQMNSLRPEDTALYICANARRTGPRAPTDIGSYRGQGTLVTVSSGGGGSGGGSEVQLVESGGGVVQPGGSLRLSCAASGSIFRSVFSSSTMEWYRQAPGKKRELVARIAPGEGTYYGALYADSVKGRFTISRDNAKNTVYLQMNSLRPEDTALYYCASGVAWGQGTLVTVSSGGGGSGGGSEVQLVESGGGVVQPGGSLRLSCAASGFTFRSFGMSWVRQAPGKGPEWVSSISGSGSDTLYADSVKGRFTISRDNSKNTLYLQMNSLRPEDTALYYCTIGGSLSRSSQGTLVTVSSA
notes: Trispecific tetravalent ISVD (VHH) T-cell engager: anti-TCR, two anti-GPC3 (biparatopic), anti-albumin; also called TCE01-5GS-A022600351-9GS-A022600314-9GS-ALB23002-A
IC50 (M) BxPC-3, xCELLigence human TDC assay [1]: > 1e-07 M
IC50 (M) HepG2, xCELLigence human TDC assay [1]: 1.15e-10 M
IC50 (M) Huh-7, xCELLigence human TDC assay [1]: 1.16e-10 M
IC50 (M) NCI-H23, xCELLigence human TDC assay [1]: > 1e-07 M
IC50 (M) NCI-H661, xCELLigence human TDC assay [1]: 1.14e-10 M
Kd [2]: < 5.9 pM
Kd [3]: < 5.6 pM
EC50 [4]: 1.11 nM
IC50 [5]: 170 nM
binding result [6]: no binding
EC50 [7]: 1 to 2 nM
EC50 [8]: 1.82 nM

Source: patent US20240343823A1 (Ablynx, published 2024)
